Reference: the supplement of paper PMC10567573

B1: PPP2R2B (parent)
chain: PSNRSFFSEIISSISDVKFSHSGR

Variants of: B1
Assay: protein stability index of a GFP-peptide fusion (GPS, HEK-293T) (PSI 1-6); higher = more stable
Conditions: c terminus: a fixed tail appended
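Further: lentivirally expressed fusions sorted by FACS into six bins by GFP to DsRed ratio, PSI derived from sequencing read proportions per bin multiplied by bin number.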

Variant	protein stability index
S12D	2.54
S12K	2.49
S12C	2.06
S12H	2.32
S12V	1.82
S12R	2.31
S12E	2.57
S12M	2.04
S12I	3.11
S12L	1.69
S12T	2.28
S12Q	2.33
S12Y	2.3
P1E	2.42
P1Y	2.95
P1A	2.19
P1N	2.42
P1M	2.24
P1I	2.02
P1T	2.39
P1K	2.56
P1L	2.19
P1Q	2.4
P1C	2.05

Variant	protein stability index
P1D	2.77
P1W	1.83
P1R	2.34
F6K	2.99
F6C	2.38
F6N	2.9
F6H	2.99
F6V	2.66
F6D	3.53
F6M	2.76
F6G	3.31
F6I	2.81
F6A	3.05
F6W	2.32
F6T	3.4
F6R	3.02
F6E	3.22
I14E	4
I14V	2.81
I14R	3.05
I14K	3.17
I14C	2.46
I14S	3.19
I14W	2.4

Variant	protein stability index
I14G	3.26
I14T	3.09
I14Q	3.18
I14M	2.6
I14D	3.04
I14N	3.05
I14A	2.79
I14F	2.17
I14H	2.79
I14P	3.05
I14L	2.54
S15T	2.05
S15L	2.13
S15W	2.34
S15M	2.08
S15P	2.85
S15E	2.93
S15C	1.81
S15H	2.39
S15F	1.79
S15A	1.73
S15D	2.83
S15K	2.35
S15Q	2.31

Variant	protein stability index
S15V	2.27
S15G	2.65
F7D	3.56
F7Q	3.64
F7S	4.24
F7V	2.24
F7R	3.32
F7M	2.79
F7H	3.32
F7I	2.87
F7L	2.25
F7W	2.41
F7A	3.38
N3I	1.83
N3Q	2.4
N3C	2.19
N3V	1.74
N3S	2.57
N3R	2.35
N3Y	2.55
N3K	2.12
N3A	2.27
N3H	2.72
N3E	2.03

Variant	protein stability index
N3D	2.32
N3W	2.75
N3T	2.14
N3F	2.06
N3L	2.17
S2D	2.85
S2I	2.02
S2H	2.44
S2Q	2.45
S2P	2.65
S2V	2.29
S2E	2.55
S2F	1.99
S2N	2.29
S2A	2.54
S2L	1.95
S2W	2.18
S2R	2.61
S2T	2.44
S2K	1.92
S2M	2.17
F19N	3.15
F19L	2.93
F19H	3.02

Variant	protein stability index
F19A	3.07
F19C	3.03
F19K	3.02
F19Y	2.57
F19S	3.3
F19T	3.07
F19R	2.99
F19M	2.88
F19D	3.52
F19E	3.58
F19V	2.5
F19Q	2.79
I10P	3.44
I10W	2.33
I10F	2.43
I10Q	3.06
I10R	2.79
I10A	3.33
I10T	3.37
I10L	1.79
I10Y	3.01
I10M	2.62
E9W	1.91
E9D	2.44

Variant	protein stability index
E9A	2.12
E9I	3.63
E9Y	1.95
E9M	1.47
E9P	2.45
E9R	2.2
E9V	2.15
E9C	2.03
E9G	2.64
E9N	2.36
E9S	2.26
V17A	2.27
V17G	2.53
V17R	2.31
V17T	2.72
V17I	2.53
V17S	2.5
V17L	2.75
V17D	3.18
V17W	2.49
V17C	2.4
V17N	2.9
V17P	2.63
V17Q	2.81

Variant	protein stability index
V17K	2.73
G23I	1.88
G23L	2.08
G23T	2.14
G23Y	2.27
G23M	2.25
G23P	2.74
G23H	2.27
G23F	2.09
G23V	1.66
G23R	2.54
G23D	2.72
G23Q	2.24
G23W	2.09
G23E	2.7
S13A	1.87
S13Q	2.82
S13G	2.37
S13T	2.64
S13P	2.99
S13C	2.19
S13N	2.79
S13I	2.5
S13L	2.45

Variant	protein stability index
S13V	1.99
S13W	2.34
S5L	2.13
S5I	1.91
S5D	2.46
S5Q	2.42
S5W	2.1
S5V	1.96
S5M	2.65
S5K	2.17
D16F	1.66
D16M	2.02
D16Y	1.61
D16T	2.28
D16W	1.99
D16K	2.13
D16G	2.29
D16C	1.92
D16A	2.34
D16S	1.92
D16Q	2.42
D16N	2.57
D16P	2.56
D16E	2.28

Variant	protein stability index
D16R	2.15
D16V	2.17
D16I	1.74
S8E	2.57
S8L	2.04
S8N	2.44
S8V	1.52
S8H	2.31
S8R	2.33
S8Q	2.33
S8I	2.84
S8P	2.69
S8G	2.41
S8Y	1.91
S8K	2.36
S8C	1.7
S8M	2.43
S8W	1.98
R24F	1.65
R24D	3.18
R24S	3.12
R24W	1.98
R24M	1.97
R24V	1.59

Variant	protein stability index
R24E	2.94
R24P	2.31
R24H	1.94
R24T	2.33
R24G	2.21
R24I	1.61
R24Y	3.23
R24L	1.75
R24C	1.87
I11R	2.97
I11W	2.59
I11S	3.2
I11M	2.69
I11L	2.3
I11Y	3.4
I11H	3.46
I11F	4.67
I11D	3.46
I11G	3.36
I11T	3.19
I11C	4.01
S22C	1.89
S22K	2.64
S22F	2.19

Variant	protein stability index
S22V	2.06
S22Q	2.43
S22H	2.48
S22T	2.42
S22I	2.11
S22D	2.79
S22E	2.37
S22L	2.48
S22W	1.9
S22N	2.58
S22R	2.71
S22M	2.27
R4L	2.41
R4I	2.79
R4Q	2.66
R4G	3.02
R4S	2.8
R4M	2.1
R4K	2.54
R4F	1.81
R4N	2.2
R4Y	1.86
R4C	1.83
R4H	2.1

Variant	protein stability index
R4D	3.49
R4W	1.4
R4P	2.8
H21T	2.11
H21D	2.54
H21S	1.93
H21N	2.48
H21L	2.03
H21P	2.67
H21Q	2.26
H21R	3.27
H21W	2.31
H21F	1.88
H21V	2.04
H21K	2.85
H21I	2.13
H21A	2.7
H21C	2.22
S20T	2.78
S20P	2.48
S20L	2.41
S20K	2.7
S20R	1.94
S20F	2.02

Variant	protein stability index
S20W	2.38
S20Q	2.45
S20G	2.26
S20I	2.22
S20M	1.95
S20C	2.12
S20H	2.18
S20Y	1.75
S20N	2.27
K18T	2.31
K18W	2.38
K18D	2.59
K18V	2.09
K18E	2.35
K18R	2.55
K18S	2.61
K18Y	1.97
K18P	2.23
K18H	2.04
K18C	1.94
K18Q	2.47
K18N	2.36
